In assay [1] the target is aggregated/amyloid Wil λ light chain (human). The assay is described as follows: cell-based or functional assay.
For assay [2], the target named is T1, misfolded H3 λ light chain (human).
T1 construct: also called H3 (misfolded)
The assay is described as follows: bio-layer interferometry. On the procedure: (§1) FIGS. 6A-6F are bio-layer interferometry sensorgrams of binding interactions between clone 1 (muLX-97) to misfolded (FIGS. 6A, 6B, 6C) and native (FIGS. 6D, 6E, 6F) conformations of Wil (FIGS. 6A, 6D), H3 (FIGS. 6B, 6E), and FOR102 (FIGS. 6C, 6F) lambda light chain variants. Binding of muLX-97 with its misfolded Wil at a range of target concentrations was measured by changes in wavelength (nm) over 720 seconds (120 s association, 600 s dissociation). Association and dissociation curves were fit using Octet Systems Software to determine KD.
(§2) The binding affinity of muLX-97 to multiple λ light chain variants in misfolded and native conformations was then measured. In addition to Wil, two light chain variants sequenced from cardiac amyloid deposits in light chain amyloidosis patients were selected. See Oberti L et al. Concurrent structural and biophysical traits link with immunoglobulin light chains amyloid propensity. Sci Rep. 2017 Dec. 1; 7(1):16809 and Baur J et al. Identification of AL proteins from 10λ-AL amyloidosis patients by mass spectrometry extracted from abdominal fat and heart tissue. Amyloid. 2023 March; 30(1) 27-37. […] In native conformations of all variants, only weak binding (limited BLI signal, at very high concentration of 1000 nM) was observed. This limited association may be due to the presence of small amounts of misfolded Wil contaminating the ‘native’ sample.

Assay [3] addresses T2, misfolded FOR102 λ light chain (human).
T2 construct: also called FOR102 (misfolded)
The assay is described as follows: bio-layer interferometry. On the procedure: as §1, §2
A general note: In BLI a coated tip is dipped into the sample, and binding shifts an interference pattern.

Assay [4] concerns the target T3, misfolded/unfolded Wil λ light chain (human).
T3 construct: mature; Soluble misfolded form made from native Wil; Biotinylated in the capture ELISA; also called misfolded Wil; Wil (misfolded)
In words: bio-layer interferometry. On the procedure: as §1, §2

Assay [5] deals with T4, islet amyloid polypeptide (IAPP) amyloid in pancreatic tissue (human, UniProt P10997 34-70).
T4 construct: Pathological control tissue in immunohistochemistry; also called IAPP amyloid pancreatic tissue
T4 chain (looked up): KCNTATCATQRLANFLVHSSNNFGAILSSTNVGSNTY
In words: immunohistochemistry on patient tissue.

Assay [6] addresses transthyretin (ATTR) amyloid in cardiac tissue (human, UniProt P02766 21-147). In words: immunohistochemistry on patient tissue.
Assay [7] deals with T3, misfolded/unfolded Wil λ light chain. The assay is described as follows: microscale thermophoresis, labeled antibody. On the procedure: (§3) FIGS. 7A and 7B are line graphs illustrating the results of binding of misfolded (FIG. 7A) or amyloid (FIG. 7B) Wil to muLX-97 measured by MST (microscale thermophoresis).
(§4) Next, the binding affinity of muLX-97 to amyloid forms of λ light chains was determined. A true affinity to aggregates could not be measured using previously described methods where either the antibody or target is immobilized, so microscale thermophoresis (MST) was used. In this method a small spot in a capillary containing fluorescently labeled antibody in the presence or absence of target is irradiated with an infrared laser. The local heating causes migration of protein out of the heated spot and the rate of migration change (due to the antibody binding to a ligand) can be used to measure the affinity. Using the NanoTemper Monolith, binding of muLX-97 to misfolded and amyloid forms of Wil was quantified, with results shown in FIG. 7.

Assay [8] shares this target. The assay is described as follows: microscale thermophoresis, labeled antibody. On the procedure: as §3, §4
This is another data set of the same source. For orientation: MST reads how a fluorescent partner responds to local heating, with and without ligand.

Assay [9] has as its target T5, aggregated/amyloid Wil λ light chain (human).
T5 construct: mature; Aggregate of many chains; Conjugated to pHrodo in the phagocytosis assay; also called Wil amyloid; amyloid/aggregated Wil
The assay is described as follows: microscale thermophoresis, labeled antibody. On the procedure:
as §3, §4

Assay [10] concerns the target T3, misfolded/unfolded Wil λ light chain. In words: capture ELISA, antibody captured by anti-mouse Fc, biotinylated Wil in solution. From the text:
All the candidate mAbs detected both misfolded/unfolded and amyloid/aggregated Wil. […] It was suspected that the Western blotting and indirect ELISA methods, which immobilizes the ‘native’ Wil protein to a surface, can lead to false-positive binding to the native protein by inducing some degree of misfolding, which would not be detected by the clones that bound weakly (clones 3-5). As such, a capture format ELISA was used to interrogate the binding behavior of clones 1 and 2. In this format, a goat anti-mouse Fc capture antibody was coated into the ELISA wells, and clones 1 or 2 are captured by the antibody with their Fabs aligned to the appropriate orientation. Then, native, or misfolded forms of biotinylated Wil is added to these wells and binding is measured by streptavidin. […] Based on the above data, clone 1 was selected as the lead candidate for subsequent characterization (henceforth referred to as muLX-97).
(An ELISA detects its analyte on a solid surface through an enzyme-linked reagent.)

B1: muLX-97 (clone 1) (antibody, V domains shown)
VH: DVKLVESGGGLVKLGGSLKLSCAASGFTFSSYYMSWVRQTPEKRLELVAAINSNGGNTYYPDTVKGRFTISRDNAKNTLYLQMSSLKSEDTALYYCARLPFDYWGQGTTLTVSS
VL: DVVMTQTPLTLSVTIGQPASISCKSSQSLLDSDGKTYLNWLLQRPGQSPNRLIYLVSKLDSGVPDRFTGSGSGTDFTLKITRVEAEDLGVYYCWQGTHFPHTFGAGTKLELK
modifications: Antibody fluorescently labeled in the MST assay; dye and site not stated.
notes: Murine monoclonal antibody from a hybridoma, purified from mouse ascites fluid; Fluorescently labeled in the MST assay
Regarding B1, in assay [1], the “EC50 of phagocytic uptake of pHrodo-labeled amyloid Wil (% pHrodo-positive cells), J774.1 cells” value is ~7 nM. In addition, the “EC50 of phagocytic uptake of pHrodo-labeled amyloid Wil (% pHrodo-positive cells), RAW 264.7 cells” value in [1] was ~20 nM. The Kd in assay [2] was determined as 317 nM; in assay [3] it was 65 nM; in assay [4], 59 nM; in assay [7], 61.9 nM; in assay [8] it was 61 nM; in assay [9] it was 87 nM. In addition, in [10], the Kd is 69 nM. Further, the binding result in assay [5] and in [6] was “no binding” each time.

In general, Kd refers to a measure of binding affinity in units of concentration. Lower therefore signals higher affinity.
